Assay results reported in paper PMC11236705 (2024).

What was measured:
Test in all cases: SPR
[1] = biological target: GGC_6
[2] = biological target: GGC_13
[3] = biological target: GGC_5

B1: ghrelin receptor ICL3-specific antibody (antibody, V domains shown)
VH: EVQLQQSGAELVRPGASVKLSCKASGYTFTDYEMHWVKQTPVHGLEWIGAIDPETGGTVYNQKFKGKATLTADISSTTAYMELRSLTSEDSAVYFCISEDIDESKDYWGQGTTLTVSS
VL: DIVMTQSPSSLAVSAGEKVTLSCKSSQSLFNSRTRKNYLAWYQQKPGLSPTLLIYWASTRKSGVPDRFTGSGSGTDFTLTITSVQAEDLAVYYCKQSYYLRTFGGGTKLEIK
B1 was tested, and the Kd [1] was 789 nM, the Kd [2] was 406 nM and the Kd [3] was 415 nM.
